The results in this text go back to publication PMC6940790.

The chains are these.
B1: Bgl1D (uncultured microorganism; L115N/S28T) (protein)
chain: MSLFFTFNPLEIVPTRVIGVPNHYQNYTWCNFQNGDYPFIDGIDINLIYQVKVGIPIVVRLETVATIFNILIPHLSESERDYIKRVYDYLRLDGRTSQSSYFFGPVDSQKIGLINRKYFFEWSSQMTYECLSGKVRGIAAPDKLVSEMNEIYNELMKVFNGDVSNIVNIGVN
B2: Bgl1D (uncultured microorganism) (protein)
chain: MSLFFTFNPLEIVPTRVIGVPNHYQNYSWCNFQNGDYPFIDGIDINLIYQVKVGIPIVVRLETVATIFNILIPHLSESERDYIKRVYDYLRLDGRTSQSSYFFGPVDSQKIGLILRKYFFEWSSQMTYECLSGKVRGIAAPDKLVSEMNEIYNELMKVFNGDVSNIVNIGVN
B3: Bgl1D (uncultured microorganism; D44E/F68L/I70M/R91G/Y37H) (protein)
chain: MSLFFTFNPLEIVPTRVIGVPNHYQNYSWCNFQNGDHPFIDGIEINLIYQVKVGIPIVVRLETVATILNMLIPHLSESERDYIKRVYDYLGLDGRTSQSSYFFGPVDSQKIGLILRKYFFEWSSQMTYECLSGKVRGIAAPDKLVSEMNEIYNELMKVFNGDVSNIVNIGVN
B4: Bgl1D (uncultured microorganism; F68L/I70M) (protein)
chain: MSLFFTFNPLEIVPTRVIGVPNHYQNYSWCNFQNGDYPFIDGIDINLIYQVKVGIPIVVRLETVATILNMLIPHLSESERDYIKRVYDYLRLDGRTSQSSYFFGPVDSQKIGLILRKYFFEWSSQMTYECLSGKVRGIAAPDKLVSEMNEIYNELMKVFNGDVSNIVNIGVN
B5: Bgl1D (uncultured microorganism; E154G/I57K/S28P) (protein)
chain: MSLFFTFNPLEIVPTRVIGVPNHYQNYPWCNFQNGDYPFIDGIDINLIYQVKVGIPKVVRLETVATIFNILIPHLSESERDYIKRVYDYLRLDGRTSQSSYFFGPVDSQKIGLILRKYFFEWSSQMTYECLSGKVRGIAAPDKLVSEMNEIYNGLMKVFNGDVSNIVNIGVN

The subject of the first data set is O=[N+]([O-])c1ccc(O[C@@H]2O[C@H](CO)[C@@H](O)[C@H](O)[C@H]2O)cc1. The data set can be described thus: purified protein. Conditions: pH 10.0, glycine-NaOH, 30 °C.
For “Bgl1D (uncultured microorganism; K117N/L115Q/M148K/Q25L/S28T)”, the Km is 1740 ± 140 µM, the Vmax came to 37.5 µmol/min/mg, the kcat was found to be 31.2 s⁻¹ and the kcat/Km turned out to be 17900 M⁻¹ s⁻¹.

For the molecule “Bgl1D (uncultured microorganism; E154G/I57K/S28P/W122G/Y82S)”, the Km was found to be 1670 ± 120 µM, the Vmax was 42.5 µmol/min/mg, the kcat was found to be 55.8 s⁻¹ and the kcat/Km stood at 33400 M⁻¹ s⁻¹.

In the case of “Bgl1D (uncultured microorganism; K117N/M148K/Q25L)”, the Km was found to be 1250 ± 120 µM, the Vmax is 21.7 µmol/min/mg, the kcat came to 23.8 s⁻¹ and the kcat/Km was determined as 14400 M⁻¹ s⁻¹.

The data set is the same for the next values; noted with them: pH 10.0, glycine-NaOH, results text says 30 °C, methods say optimal temperatures of 30 and 50 °C.
On to “Bgl1D (uncultured microorganism; D44E/L115N/R91G/S28T/Y37H)”, for which the Km turned out to be 430 ± 40 µM, the Vmax was found to be 314 µmol/min/mg, the kcat was determined as 242 s⁻¹ and the kcat/Km was 562000 M⁻¹ s⁻¹.

Substrate in the next data set: O=[N+]([O-])c1ccc(O[C@@H]2O[C@H](CO)[C@@H](O)[C@H](O)[C@H]2O)cc1
Briefly: purified protein. The following applies: pH 10.0, glycine-NaOH, 30 °C. The source holds these as a separate data set.
As to B1, the Km was 1010 ± 450 µM, the maximal velocity (Vmax) is 26.3 µmol/min/mg, the kcat was 16.5 s⁻¹ and the kcat/Km was 16400 M⁻¹ s⁻¹.

Regarding B2, the Km is 540 ± 30 µM, the Vmax was 20.1 µmol/min/mg, the catalytic constant (kcat) amounted to 13.4 s⁻¹ and the kcat/Km is 24800 M⁻¹ s⁻¹.

As for B3, the Km amounted to 470 ± 20 µM, the Vmax amounted to 154 µmol/min/mg, the kcat is 139 s⁻¹ and the kcat/Km is 296000 M⁻¹ s⁻¹.

B4: the Km stood at 530 ± 80 µM, the Vmax turned out to be 25.8 µmol/min/mg, the kcat was found to be 29.4 s⁻¹ and the kcat/Km came out at 55400 M⁻¹ s⁻¹.

B5: the Km was determined as 1170 ± 50 µM, the Vmax was 52.9 µmol/min/mg, the kcat was 48.1 s⁻¹ and the kcat/Km was 41100 M⁻¹ s⁻¹.

A word on the Km: it is the concentration of substrate that gives half-maximal velocity. The Vmax is the top rate of the reaction or transport when substrate is in excess. Usually kcat stands for the maximal rate divided by the concentration of active sites. As usually defined, the kcat/Km is the second-order rate constant that governs catalysis at low substrate concentration.
